Where two headings read alike, the source gives them in different places.
Molecular target: CD40 (Homo sapiens, UniProt P25942)
Experiment: DC cell activation assay system (monocyte-derived DCs, CD40L stimulation)
Format: cell-based
Parameters: endogenous in cells; host or cells: human PBMCs (CD19+ B cells read out)
Source text: CD40 is highly expressed on dendritic cells (DCs), and CD40L, upon binding to CD40, can induce DC activation, up-regulate the expression of multiple activation markers on the DC Cell surface, and promote the secretion of multiple inflammatory factors from DCs, further amplifying immune responses. CD40 antagonistic antibodies block the binding of CD40L to CD40, thereby eliminating the immune activation process of DC cells.
Monocytes were sorted and enriched from fresh primary human peripheral blood PBMCs using the EsaySep™ human CD14 sorting kit (Stemcell, 19359), and differentiated for 6 days with RPMI-1640 medium (10% FBS, 1% penicillin-streptomycin), 50 ng/mL IL-4 (PeproTech, 200-04) and 50 ng/mL GM-CSF (PeproTech, 300-03). On day 7, the differentiated DC cells were plated at 1E5/well into a 96-well cell culture plate. Serially diluted test antibodies were added to the wells, and the cells were co-incubated at 37° C. in 5% CO2 for 0.5 h. CD40L-his and an anti-His antibody were then added to each well at final concentrations. After 48 h of culture, the level of DC cell activation was measured by flow cytometry: after centrifugation, the supernatant was removed, and the cells were washed twice with FACS buffer (PBS+2% FBS) and stained at room temperature for 15 min with 100 μL of Fixable viability dye EF780 (Invitrogen, 65086514) diluted at 1:1000. The cells were washed twice and then blocked at room temperature for 10 min with 100 μL of human Fc blocker (BD, 564220) diluted at 1:200. After centrifugation, the cells were incubated at 4° C. for 0.5 h with flow cytometry antibodies (Alexa Fluor®700 anti-human CD11c (Biolegend, 337220), Brilliant Violet 421™ anti-human CD80 (Biolegend, 305221), and APC anti-human CD86 (Biolegend, 305412)) diluted at 1:200. After centrifugation, the supernatant was removed, the cells were washed twice with FACS buffer and then resuspended in 200 μL of PBS, and the fluorescence intensity on the cell surface was measured by flow cytometry (BD FACS Celesta).
In addition, the level of cytokine secretion in the supernatant was measured after 24 h (TNFα, Cisbio, 62[…]) and 48 h (IL-12/23 p40, Novus, VAL121) of culture. According to the results shown in Table 14 and FIGS. 3A to 3D, 9E6-L4H2 and 2F12-L4H2 have similar DC cell inhibition activity to the control antibody CFZ533.
With reference to the method in Example 11, the inhibitory activity of the anti-CD40 antibodies 2F12-L4H2-AAYTE and 9E6-L4H2-AAYTE, which carry the AAYTE mutation in the Fc, in the DC cell activation assay system was measured.

CD40, sequence (P25942 21-277): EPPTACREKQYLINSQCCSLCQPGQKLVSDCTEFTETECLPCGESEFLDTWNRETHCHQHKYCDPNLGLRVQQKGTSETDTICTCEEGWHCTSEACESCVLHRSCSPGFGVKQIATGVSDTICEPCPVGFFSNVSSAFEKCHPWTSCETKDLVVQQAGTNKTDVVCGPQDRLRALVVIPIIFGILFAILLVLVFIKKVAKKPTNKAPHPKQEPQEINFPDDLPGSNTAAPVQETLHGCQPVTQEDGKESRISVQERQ

**Q.** “CFZ533: anti-CD40 antagonistic antibody (iscalimab), positive control; variable regions from U.S. Pat. No. 8,277,810B [reference compound]” was tested. Which IC50 (48 h culture, read-out: IC50 in DC cell activation assay system, CD80 MFI) did it give?
**A.** 1.19 nM

**Q.** What about the IC50 (48 h culture, read-out: IC50 in DC cell activation assay system, CD86 MFI) of the same substance?
**A.** 1.93 nM

**Q.** What about the IC50 (supernatant, 24 h, read-out: IC50 in DC cell activation assay system, TNFα) of the same substance?
**A.** 0.35 nM

**Q.** What about the IC50 (supernatant, 48 h, read-out: IC50 in DC cell activation assay system, IL-12/23 p40) of the same substance?
**A.** 0.68 nM
